# Test results: PMC2731525
# pKd: −log10 of the molar value.
# Biological target: biglycan (UniProt P21810)
# Experiment: solid-phase binding assay
# Chain of UniProt P21810 (P21810 38-368): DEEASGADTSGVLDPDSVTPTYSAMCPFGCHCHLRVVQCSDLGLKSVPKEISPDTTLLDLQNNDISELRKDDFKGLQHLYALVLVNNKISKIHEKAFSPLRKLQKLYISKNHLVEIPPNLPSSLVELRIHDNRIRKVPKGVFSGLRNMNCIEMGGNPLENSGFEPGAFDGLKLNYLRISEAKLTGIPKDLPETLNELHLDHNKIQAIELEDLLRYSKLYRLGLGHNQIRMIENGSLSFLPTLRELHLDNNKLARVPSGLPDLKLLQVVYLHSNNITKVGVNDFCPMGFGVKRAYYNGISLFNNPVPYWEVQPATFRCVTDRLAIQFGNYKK
row,pKd,Substance
1,7.89,apoCIII-free LDL isolated from diabetic LDL with low apoCIII/apoB molar ratio (natural protein)
2,8.07,LDL with high apoCIII from patients with type 2 diabetes (from UniProt P02656 21-99) (complex)
3,8.01,apoCIII-free LDL isolated from diabetic LDL with high apoCIII/apoB molar ratio (natural protein)
4,7.91,LDL with low apoCIII from patients with type 2 diabetes (from UniProt P02656 21-99) (complex)
